Assay results: paper PMC3313952, “Multicopper Oxidase-3 Is a Laccase Associated with the Peritrophic Matrix of Anopheles gambiae” (PLoS ONE, 2012)

Key:
Experiment in all cases: spectrophotometric product formation, Michaelis-Menten fit
Assay type in all cases: biochemical, Anopheles gambiae
[1] = substrate: Oc1ccc(O)cc1; settings: pH 6.5, 0.1 M Mes; pH 6.5
Text: (§1) spectrophotometric product formation, Michaelis-Menten fit on AgMCO3

[2] = substrate: N[C@@H](Cc1ccc(O)c(O)c1)C(=O)O; settings: pH 7.5, 0.1 M sodium phosphate; pH 7.5
Text: as §1

[3] = substrate: CC(=O)NCCc1ccc(O)c(O)c1; settings: pH 7.5, 0.1 M sodium phosphate; pH 7.5
Text: as §1

[4] = substrate: NCCC(=O)NCCc1ccc(O)c(O)c1; settings: pH 7.0, 0.1 M sodium phosphate; pH 7.0
Text: as §1

[5] = substrate: NCCc1ccc(O)c(O)c1; settings: pH 7.5, 0.1 M sodium phosphate; pH 7.5
Text: as §1

[6] = substrate: Oc1ccccc1O; settings: pH 7.0, 0.1 M sodium phosphate; pH 7.0
Text: as §1

[7] = substrate: CCn1c(=NN=c2sc3cc(S(=O)(=O)O)ccc3n2CC)sc2cc(S(=O)(=O)O)ccc21; settings: pH 6.0, 0.1 M Mes; pH 6.0
Text: as §1

B1: AgMCO3 (Anopheles gambiae) (protein)
chain: QSWLNTLLEQSNGTLDVSTFPGEQCLRECDNTQPRICHFSWTMEHYHVMGPACRDCAKGNHTDCYHPACITADGVERGVMSLNRKIPGPTISVCRHDLIVVDITNAMAGTSAAIHWHGLHQRATPYMDGVPFITQCPIGFGNTFRYAFLATEPGTQFYHSHSGHHKVNGHYGALIVREPKRVDPNGDLYHYDTPAHVILGSDWMHIDGEMFMPGLPSAGGIMPINLLINGKGTYHDPKKNETTQTPLEVYTVRRGARFRFRFINAASHVCPLQLQIEDHMMEVIASDSFHLQPRKVDTLVSTSGERYDFVLEANGVKDTYWVRLRSLGPCADLQLEQFAVLRYTTGPFINDAFPTGAPPTYEEPFRNVATANHPNATCGRPEFGDYCITDFQAYDTDEDVINGVPDHQLTFGFYNYPVSFESMFESNRYEHYMNIYGSVMMQGAINNISLAYPPFSLLTQPEKIRDDTFCDEDNRPDSCSDRQLCTCTHRVKINLGDIVELYILDLTPSVNDLNHPFHLHGYQMFVMEMSQDRRVPITLEIAQNIARQRLLSRNTVALPPRKDTVSIPSRGYARVRFRADNPGFWLMHCHYEWHTAVGMALVLQVGETSEMVKAPADFPKCDSYTPAVGHLLQGSL
notes: no tag mentioned; baculovirus / Sf9 host; cDNA identical to EF592176.2 except Leu instead of Pro at residue 15 in signal peptide (probable GenBank error)
Km [1]: 5200 µM
kcat [1]: 26.2 s⁻¹
kcat/Km [1]: 5030 M⁻¹ s⁻¹
Km [2]: 1400 µM
kcat [2]: 1.55 s⁻¹
kcat/Km [2]: 1100 M⁻¹ s⁻¹
Km [3]: 1000 µM
kcat [3]: 2.58 s⁻¹
kcat/Km [3]: 2580 M⁻¹ s⁻¹
Km [4]: 2200 µM
kcat [4]: 11.8 s⁻¹
kcat/Km [4]: 5380 M⁻¹ s⁻¹
Km [5]: 1600 µM
kcat [5]: 4.57 s⁻¹
kcat/Km [5]: 2850 M⁻¹ s⁻¹
Km [6]: 2100 µM
kcat [6]: 5.1 s⁻¹
kcat/Km [6]: 2430 M⁻¹ s⁻¹
Km [7]: 8500 µM
kcat [7]: 2.6 s⁻¹
kcat/Km [7]: 300 M⁻¹ s⁻¹
